# According to publication PMC5618690, “Structural and functional analysis of two small leucine-rich repeat proteoglycans, fibromodulin and chondroadherin” (Matrix Biology, 2017):
# “Also recorded” adds a separate entry of the source.
# What was measured:
# [1] = SEC-MALS, oligomeric state in solution; format: physicochemical; details: for oligomeric state in solution / experimentally determined mass: SEC-MALS; for oligomeric state in solution: 10 mg/ml injected, pH 7.5, peak protein concentration estimated at least 50 μM; for experimentally determined mass: Superdex 75, 10 mg/ml injected, 150 mM NaCl, 20 mM HEPES (pH 7.5), 0.1 ml/min; for dissociation constant of dimer (if any): inferred from SEC-MALS, compared with decorin dimer 1.4 μM
# Procedure: Fibromodulin and chondroadherin samples at a concentration of 10 mg/ml were injected onto a Superdex 75 10/30 column (GE Healthcare) connected to a 1260 Infinity HPLC (Agilent Technologies). The running buffer was 150 mM NaCl, 20 mM HEPES (pH 7.5) and the flow rate was 0.1 ml/min. Light scattering and refractive index changes were monitored using in-line Wyatt Mini Dawn and Optilab T-rEX detectors (Wyatt Technology Corp). The data were analysed with the Wyatt ASTRA V software. Each N-linked glycosylation site was assumed to add 2 kDa of molecular mass. The extinction coefficients for fibromodulin and chondroadherin were calculated as 32,930 and 40,715 M^− 1 cm^− 1, respectively.
# [2] = Affinity of untagged protein for Ni^2 + resin
# Procedure: For purification of His-tagged fibromodulin, the filtered serum-free cell culture supernatant was adjusted to a final concentration of 20 mM Na-HEPES (pH 7.5) and loaded onto a 5-ml HisTrap Excel column (GE Healthcare) using an Äkta Purifier (GE Healthcare). The column was washed with buffer A (20 mM HEPES pH 7.5, 150 mM NaCl, 2 mM CaCl2) and the protein was eluted with 500 mM imidazole in buffer A. To remove the His-tag, fractions containing protein were incubated overnight with recombinant His-tagged TEV protease (made in E. coli using an expression vector kindly provided by Stephen Curry) while dialysing against buffer A. The reaction mixture was passed over a 5-ml HisTrap Excel column, and the flow-through containing the untagged fibromodulin protein was collected. After concentration using a Vivaspin centrifugal device (Sartorius), the fibromodulin protein was further purified by size exclusion chromatography on a Superdex 75 10/300 GL column (GE Healthcare) using buffer A as the running buffer. The purified protein ran as a single broad band of ~ 55 kDa on reducing SDS-PAGE (calculated: 41.5 kDa + 4 N-linked glycans).
# The natural affinity of chondroadherin for Ni^2 + affinity resin was used to purify the untagged protein. […]
# [3] = system: Collagen Toolkits II and III; details: Toolkit peptides from collagens II and III; ref [9]; cited from earlier work
# Text: (§1) Chondroadherin knockout mice present with ...
# Lysyl oxidase = details: very N-terminus of fibromodulin; ref [9]; cited from earlier work
# Text: Previous studies with bacterially expressed fibromodulin fragments identified LRRs 5-7 and 11 (VI-VIII and XII in the numbering scheme used here) as important for collagen binding, [25]. Thus, the collagen binding site appears to be located in the C-terminal half of fibromodulin, potentially leaving the N-terminal half containing most of the surface-exposed aromatic residues free to interact with another partner.
# [4] = not SEC-MALS of this work; ref [26], [32], [33]; cited from earlier work
# Text: Fig. 3 Concave face interactions in SLRP crystal structures. For each structure, two orthogonal views are shown. […] The experimentally determined mass of fibromodulin was 56.7 kDa (calculated: 41.5 kDa + 4 N-linked glycans) and that of chondroadherin was 39.6 kDa (calculated: 38.6 kDa). In comparison, using the same SEC-MALS setup, we previously determined an experimental mass of 83.5 kDa for the glycosylated decorin core protein (calculated: 36.2 kDa + 4 N-linked glycans).
# collagen III = assay: Chondroadherin binding to collagen III; details: Collagen Toolkit III solid-phase assay
# Procedure: (§2) Recombinant purified chondroadherin was biotinylated using biotin EZ-link reagent (ThermoFisher) and dialysed into TBS to remove excess biotinylation reagent. Collagen peptides from Toolkit II and III [57], [58] were coated on a 96-well plate at 10 μg/ml in 20 mM acetic acid overnight at 4 °C. […] The following incubations were conducted at room temperature. Plates were rinsed three times with TBS and blocked for 1 h with 5% BSA in TBS. After rinsing with TBS, plates were incubated with biotinylated chondroadherin at 10 μg/ml in TBST (TBS with 0.1% Tween-20) with 0.1% BSA for 1 h. Plates were washed three times with TBST, and incubated with streptavidin-HRP (Millipore) diluted 1:20,000 in TBST with 0.1% BSA for 1 h. Plates were washed five times with TBST, and the binding was detected with TMB substrate (ThermoFisher) and stopped with 2 M sulphuric acid. The absorbance was read at 450 nm.
# collagen II [5] = assay: Chondroadherin binding to collagen II mapped with Toolkit II; details: mapped with Toolkit II solid-phase assay; six of the nine triplets in II-26
# Procedure: as §2
# collagen I = details: ref [11]; cited from earlier work
# Text: as §1
# integrin α2β1 = details: cited from earlier work
# Text: One of the more distant homologues of fibromodulin is chondroadherin, a class IV SLRP found in cartilage and bone. Chondroadherin-deficient mice have thinner cortical bones and longer growth plate proliferation zones, as well as mechanically softer knee surface cartilage. […] These positions map to the α-helix in the C-terminal cap of chondroadherin. Glu316, the last residue of the α-helix, appears to be critical for integrin binding and may interact with the metal ion-dependent adhesion site of the integrin α2 I domain [45], [46].
# [6] = C-terminal 14 residues; ref [15]; cited from earlier work
# Text: The collagen-binding site on chondroadherin has not been mapped. […] These positions map to the α-helix in the C-terminal cap of chondroadherin. Glu316, the last residue of the α-helix, appears to be critical for integrin binding and may interact with the metal ion-dependent adhesion site of the integrin α2 I domain [45], [46].
# collagen II [7] = details: ref [13]; cited from earlier work
# Text: One of the more distant homologues of fibromodulin is chondroadherin, a class IV SLRP found in cartilage and bone. Chondroadherin-deficient mice have thinner cortical bones and longer growth plate proliferation zones, as well as mechanically softer knee surface cartilage.
binding to collagen III (collagen III),Molecule,oligomeric state in solution [1],experimentally determined mass [1] [kDa],dissociation constant of dimer (if any) [1],affinity for Ni^2 + resin [2],binding to Toolkit peptides [3],binding to lysyl oxidase (Lysyl oxidase),oligomeric state in solution (literature) [4],binding to collagen II (collagen II [5]),binding to collagen I (collagen I),"integrin α2β1 binding (integrin α2β1; binding site in chondroadherin, ref [44])",interaction with integrin α2β1 (cell-matrix interactions) (integrin α2β1; ref [14]),heparan sulphate binding [6],interaction with collagen II (collagen II [7])
–,"fibromodulin: human fibromodulin residues 19–376 of UniProt Q06828, ten N-terminal tyrosines mutated to serine, natively glycosylated (protein, N-linked glycans at Asn127, Asn166, Asn201, Asn291; left off: His-tag, N-terminal, cleaved, human fibromodulin residues 19–376 of UniProt Q06828, ten N-terminal tyrosines mutated to serine, natively glycosylated) GALAQYEDDPHWWFHYLRSQQSTSSDPSDPSPSETSEPSPSGVDEGPASTSGSPSPPDPRDCPQECDCPPNFPTAMYCDNRNLKYLPFVPSRMKYVYFQNNQITSIQEGVFDNATGLLWIALHGNQITSDKVGRKVFSKLRHLERLYLDHNNLTRMPGPLPRSLRELHLDHNQISRVPNNALEGLENLTALYLQHNEIQEVGSSMRGLRSLILLDLSYNHLRKVPDGLPSALEQLYMEHNNVYTVPDSYFRGAPKLLYVRLSHNSLTNNGLASNTFNSSSLLELDLSYNQLQKIPPVNTNLENLYLQGNRINEFSISSFCTVVDVVNFSKLQVLRLDGNEIKRSAMPADAPLCLRLASLIEI",predominantly monomeric in solution; also recorded: neither fibromodulin nor chondroadherin forms a stable dimer in solution,56.7,substantially higher than that of the decorin dimer,substantial affinity for Ni^2 + resin,bound several Toolkit peptides from both collagens II and III; also recorded: binds to KGHR-containing sites in Collagen Toolkits II and III,Lysyl oxidase has been shown to bind to the very N-terminus of fibromodulin,–,–,–,–,–,–,–
–,"biglycan: class I SLRP core protein (protein, UniProt P21810 38-368, looked up) Biglycan: DEEASGADTSGVLDPDSVTPTYSAMCPFGCHCHLRVVQCSDLGLKSVPKEISPDTTLLDLQNNDISELRKDDFKGLQHLYALVLVNNKISKIHEKAFSPLRKLQKLYISKNHLVEIPPNLPSSLVELRIHDNRIRKVPKGVFSGLRNMNCIEMGGNPLENSGFEPGAFDGLKLNYLRISEAKLTGIPKDLPETLNELHLDHNKIQAIELEDLLRYSKLYRLGLGHNQIRMIENGSLSFLPTLRELHLDNNKLARVPSGLPDLKLLQVVYLHSNNITKVGVNDFCPMGFGVKRAYYNGISLFNNPVPYWEVQPATFRCVTDRLAIQFGNYKK",–,–,–,–,–,–,form stable dimers in solution,–,–,–,–,–,–
not at all to collagen III,"chondroadherin: human chondroadherin, residues 23–359 of Uniprot O15335, untagged; vector-derived APLA sequence at the N-terminus (protein) APLACPQNCHCHSDLQHVICDKVGLQKIPKVSEKTKLLNLQRNNFPVLAANSFRAMPNLVSLHLQHCQIREVAAGAFRGLKQLIYLYLSHNDIRVLRAGAFDDLTELTYLYLDHNKVTELPRGLLSPLVNLFILQLNNNKIRELRAGAFQGAKDLRWLYLSENALSSLQPGALDDVENLAKFHVDRNQLSSYPSAALSKLRVVEELKLSHNPLKSIPDNAFQSFGRYLETLWLDNTNLEKFSDGAFLGVTTLKHVHLENNRLNQLPSNFPFDSLETLALTNNPWKCTCQLRGLRRWLEAKASRPDATCASPAKFKGQHIRDTDAFRSCKFPTKRSKKAGRH","predominantly monomeric in solution; also recorded: neither fibromodulin nor chondroadherin forms a stable dimer in solution; also recorded: at best, very weak",39.6,substantially higher than that of the decorin dimer,substantial affinity for Ni^2 + resin,–,–,–,binds to a unique sequence motif in collagen II,reported binding of chondroadherin to collagen I,residues 307–318 have been identified as a binding site for integrin α2β1,mediates cell-matrix interactions through binding to integrin α2β1,bind heparan sulphate,interacts with collagen II
